{
  "source": "patent US5885811A",
  "about": "“Leader sequence inducing a post-translational modification of polypeptides in bacteria gene therefor and subtilin variant of enhanced stability and activity” (University of Maryland, priority 1995, dated 1999)",
  "key": {"[1]": {"assay_type": "physicochemical", "experimental": "Measurement of chemical stability of DHA5. The dehydro residues of nisin and subtilin have vinyl protons that give well-separated resonances in the proton NMR spectrum, Liu and Hansen, Appl. Environ. Microbiol., 56, p. 251 (1990). The areas of the vinyl proton peaks in the NMR spectrum were measured, and chemical modification of DHA5 over time was taken as the decrease in peak area of the DHA5 vinyl protons in subtilin and in E4I-subtilin as compared to zero time. Proton NMR spectra were obtained using a Bruker AMX-500 NMR spectrometer. The spectra were obtained at a constant temperature of 295K, using selective solvent suppression.\nChemical and biological stability of natural subtilin. The natural producer of subtilin is B. subtilis ATCC 6633. […] These dissolved samples were incubated at room temperature, and from time to time, the NMR spectrum of the one sample and the biological activity of the other sample against Bacillus cereus spores were determined. […]\nE4I-subtilin has enhanced chemical and biological stability. The central design strategy in the construction of a stable mutant of subtilin was based on the idea that the chemical and biological stabilities of subtilin are determined by the chemical reactivity of DHA5; and that DHA5 in natural subtilin is unstable because the Glu4 carboxyl participates in its chemical modification (FIG. 7). […]"}, "Bacillus cereus spores": {"system": "Bacillus cereus spores", "assay": "Biological stability: activity against Bacillus cereus spores over time of incubation", "assay_type": "cell-based", "conditions": "50 mM NaPi pH 6.8, room temperature, compared with DHA5 disappearance", "experimental": "(§1) Measurement of biological stability of subtilin. Biological activity against Bacillus cereus spores was measured by a liquid assay in which various concentrations of subtilin were added to a suspension of Bacillus cereus T spores in 15 ml polypropylene tubes, and inhibitory effects were evaluated by phase-contrast microscopy as described previously (Morris et al, J. Biol. Chem., 259, 13590-13594 (1984) and Appl. Environ. Microbiol., 42, 958-962 (1981)). The amount of subtilin required to inhibit spore outgrowth during the 3 hour assay period was used as a measure of antimicrobial activity. Relative amounts of subtilin were estimated from the area of the subtilin peak (measured at 254 nm) that eluted from the C-18 analytical HPLC column during purification. The amounts were converted to molar quantities of subtilin by comparing the peak area of subtilin with that of a known molar quantity of a nisin standard (21). For this purpose, the extinction coefficients of nisin and subtilin at 254 nm were assumed to be the same, in that absorbance at this wavelength is mainly due to the same three dehydro residues present in both peptides. The biological activity against Bacillus cereus spores of the E4I-subtilinmutant was determined in the same way as for natural subtilin.\nChemical and biological stability of natural subtilin. The natural producer of subtilin is B. subtilis ATCC 6633. […]"}, "Bacillus cereus T spores": {"system": "Bacillus cereus T spores", "assay": "Spore outgrowth liquid assay (amount required to inhibit spore outgrowth during 3 hour assay)", "assay_type": "cell-based", "experimental": "as §1\nE4I-subtilin has enhanced specific activity. […]"}, "[2]": {"conditions": "reported; cited from earlier work"}},
  "data": [
    {"smiles": "C=C(NC(=O)[C@@H](NC(=O)[C@H](CCCCN)NC(=O)[C@@H]1CSC(C)[C@H]2NC(=O)[C@H](CC(C)C)NC(=O)[C@H](NC(=O)[C@H](CCC(N)=O)NC(=O)[C@H](CC(C)C)NC(=O)[C@H](Cc3ccccc3)NC(=O)[C@@H]3CSC(C)[C@@H](NC(=O)[C@@H](NC(=O)[C@@H]4CSC(C)[C@@H](NC(=O)[C@@H]5CSC[C@@H](NC(=O)[C@H](CCCCN)NC(=O)[C@@H](N)Cc6c[nH]c7ccccc67)C(=O)N[C@@H]([C@@H](C)CC)C(=O)NC(=C)C(=O)N[C@@H](CC(C)C)C(=O)N5)C(=O)N5CCC[C@H]5C(=O)NCC(=O)N4)C(C)C)C(=O)NCC(=O)N[C@@H](C)C(=O)N[C@@H](CC(C)C)C(=O)N[C@@H](CCC(N)=O)C(=O)NC(=CC)C(=O)N3)C(C)SC[C@H](NC2=O)C(=O)N[C@@H](CC(N)=O)C(=O)N1)[C@@H](C)CC)C(=O)N[C@@H](CCCCN)C(=O)O", "note": "(stereo partly drawn) [E4I-subtilin]", "values": [
      {"measurement": "increase in chemical and biological stability relative to natural subtilin", "setting": "[1]", "value": 57, "unit": "fold"}
    ]},
    {"smiles": "C=C1NC(=O)CC[C@@H](C(=O)O)NC(=O)[C@H](NC(=O)[C@H](CCCCN)NC(=O)[C@@H](N)Cc2c[nH]c3ccccc23)CSC[C@@H](C(=O)N[C@@H]2C(=O)N3CCC[C@H]3C(=O)NCC(=O)N[C@H](C(=O)N[C@H](C(=O)N[C@@H]3C(=O)NCC(=O)N[C@@H](C)C(=O)N[C@@H](CC(C)C)C(=O)N[C@@H](CCC(N)=O)C(=O)N/C(=C/C)C(=O)N[C@H](C(=O)N[C@@H](Cc4ccccc4)C(=O)N[C@@H](CC(C)C)C(=O)N[C@@H](CCC(N)=O)C(=O)N[C@@H]4C(=O)N[C@@H](CC(C)C)C(=O)N[C@H]5C(=O)N[C@@H](CSC4C)C(=O)NC(=O)[C@H](CC(N)=O)N[C@H](C(=O)N[C@@H](CCCCN)C(=O)N[C@H](C(=O)NC(=C)C(=O)N[C@@H](CCCCN)C(=O)O)[C@@H](C)CC)CSC5C)CSC3C)C(C)C)CSC2C)N[C@@H](CC(C)C)C(=O)NC1=O", "note": "(stereo partly drawn) [subtilin]", "values": [
      {"measurement": "loss of biological activity against Bacillus cereus spores during incubation", "setting": "Bacillus cereus spores", "value": "dropped at approximately this same rate"},
      {"measurement": "t1/2 of chemical modification (disappearance) of DHA5, first-order", "setting": "[1]; aqueous solution (D2O) pH 6.8, room temperature, NMR at 295K", "value": 19, "unit": "h"},
      {"measurement": "concentration showing inhibition of spore outgrowth", "setting": "Bacillus cereus T spores", "value": "about 1 μg per ml"},
      {"measurement": "concentration showing inhibition of spore outgrowth (molar)", "setting": "Bacillus cereus T spores", "value": "~280", "unit": "nM"},
      {"measurement": "light sensitivity", "setting": "[2]", "value": "light-sensitive"}
    ]}
  ]
}
